Measured values taken from patent publication US20090142280A1.

How the values were obtained:
LL-37 (…) (human) = assay: cell-based or functional assay
[1] = tested on: LL-37 (LLGDFFRKSKEKIGKEFKRIVQRIKDFLRNLVPRTES)
[2] = tested on: T1, oligopeptide-10 (HB64), FAKALKALLKALKAL-NH2
T1 sequence: FAKALKALLKALKAL

[3] = target: oligopeptide-10 (HB64), …-NH2; assay: cell-based or functional assay
[4] = target: HB1345, decanoyl-KFKWPW-NH2; assay: cell-based or functional assay
[5] = target: hexapeptide-21 (HB168), FALLKL-NH2; assay: cell-based or functional assay

urokinase (enzyme) gave a Survival of peptide (1 mg/mL) with urokinase 22 µg/mL, no inhibitor, LC/MS, Expt. 51 (LL-37 (…) (human)) of under 24 h and a Survival of peptide (1 mg/mL) with urokinase 22 µg/mL, no inhibitor, LC/MS, Expt. 53 (LL-37 (…) (human)) of under 24 h.

With plasmin (Sigma-Aldrich) the “TIC trace and mass spectrum (LC/MS) after 1-hour incubation” value [1] was “the molecular weight of parent peptide LL-37 was undetectable” and the “TIC and XIC traces (LC/MS) after a 4-hour exposure” value [2] was “while most of the HB64 peptide was degraded, some parent peptide could still be detected”.

elastase (Sigma-Aldrich) (enzyme) showed a Survival of peptide (1 mg/mL) with elastase 25 µg/mL, no inhibitor, LC/MS, Expt. 22 [3] of under 1 h.

For trypsin (Sigma-Aldrich), the “TIC traces (LC/MS) of peptide degradation at time zero, 1 hour and 23 hours” value [2] was “the parent peak (represents the full-length, non-degraded peptide) in the TIC traces was reduced over time and peaks for various breakdown products increased in intensity over time”.

Substance trypsin (Sigma-Aldrich) (enzyme) has a Survival of peptide (1 mg/mL) with trypsin 25 µg/mL, no inhibitor, LC/MS, Expt. 8 [4] of under 1 h, a Survival of peptide (1 mg/mL) with trypsin 25 µg/mL, no inhibitor, LC/MS, Expt. 6 [5] of under 1 h and a Survival of peptide (1 mg/mL) with trypsin 25 µg/mL, no inhibitor, LC/MS, Expt. 4 [3] of under 1 h. For the same substance, the Survival of peptide (1 mg/mL) with trypsin 25 µg/mL, no inhibitor, LC/MS, Expt. 10 [3] was under 1 h and the Survival of peptide (1 mg/mL) with trypsin 25 µg/mL, no inhibitor, LC/MS, Expt. 12 [3] was under 1 h.

Work on plasmin (Sigma-Aldrich) (enzyme) yielded a Survival of peptide (1 mg/mL) with plasmin 22 µg/mL, no inhibitor, LC/MS, Expt. 37 (LL-37 (…) (human)) of under 1 h, a Survival of peptide (1 mg/mL) with plasmin 22 µg/mL, no inhibitor, LC/MS, Expt. 38 (LL-37 (…) (human)) of under 45 min and a Survival of peptide (1 mg/mL) with plasmin 20 µg/mL, no inhibitor, LC/MS, Expt. 45 [3] of under 4 h. It also gave a Survival of peptide (1 mg/mL) with plasmin 25 µg/mL, no inhibitor, LC/MS, Expt. 25 [3] of under 4 h, a Survival of peptide (1 mg/mL) with plasmin 25 µg/mL, no inhibitor, LC/MS, Expt. 30 [3] of under 6 h and a Survival of peptide (1 mg/mL) with plasmin 46 µg/mL, no inhibitor, LC/MS, Expt. 32 [3] of under 4 h.

With chymotrypsin (Sigma-Aldrich) (enzyme) the Survival of peptide (1 mg/mL) with chymotrypsin 22 µg/mL, no inhibitor, LC/MS, Expt. 39 (LL-37 (…) (human)) was under 1 h and the Survival of peptide (1 mg/mL) with chymotrypsin 25 µg/mL, no inhibitor, LC/MS, Expt. 34 [3] was under 1 h.

In the case of kallikrein (Sigma-Aldrich) (enzyme), the Survival of peptide (1 mg/mL) with kallikrein 22 µg/mL, no inhibitor, LC/MS, Expt. 41 (LL-37 (…) (human)) was under 4 h, the Survival of peptide (1 mg/mL) with kallikrein 22 µg/mL, no inhibitor, LC/MS, Expt. 47 (LL-37 (…) (human)) was under 4 h and the Survival of peptide (1 mg/mL) with kallikrein 22 µg/mL, no inhibitor, LC/MS, Expt. 49 (LL-37 (…) (human)) was under 1 h. For the same substance, the Survival of peptide (1 mg/mL) with kallikrein 22 µg/mL, no inhibitor, LC/MS, Expt. 55 (LL-37 (…) (human)) was under 1 h and the Survival of peptide (1 mg/mL) with kallikrein 25 µg/mL, no inhibitor, LC/MS, Expt. 27 [3] was under 24 h.
